Biological target: T1, N-terminally tagged soluble SARAF luminal domain, SP-XFP-SARAFL-R (SARAF(Δ165-339) with signal peptide and … (human, UniProt Q96BY9 31-164))
T1 sequence: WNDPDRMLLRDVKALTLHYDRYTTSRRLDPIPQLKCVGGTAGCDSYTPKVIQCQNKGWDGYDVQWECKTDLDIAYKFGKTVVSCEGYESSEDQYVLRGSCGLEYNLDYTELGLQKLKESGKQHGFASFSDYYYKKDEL
Test: FRET or BRET

B1: C-terminally tagged soluble SARAF luminal domain, SP-SARAFL-XFP-R (domain or fragment, human)
chain: WNDPDRMLLRDVKALTLHYDRYTTSRRLDPIPQLKCVGGTAGCDSYTPKVIQCQNKGWDGYDVQWECKTDLDIAYKFGKTVVSCEGYESSEDQYVLRGSCGLEYNLDYTELGLQKLKESGKQHGFASFSDYYYKTGRPACKIPNDLKQKVMNHKDEL
In the case of B1, the “FRET signal, fold over the pair with both fluorophores at the N-terminus” value is reported as about 3 fold.

— PMC6599547 (Journal of molecular biology, 2019)
